Data set [1] has as its target BsaWI D145A (Bacillus stearothermophilus W1718). The data set is described as follows: SEC; gel filtration at 5 μM loading concentration; Superdex column, room temperature, 20 mM Tris-HCl pH 7.4, 0.5 M NaCl, 5% glycerol; oligomeric state from the apparent Mw.
Data set [2] deals with BsaWI D175A (Bacillus stearothermophilus W1718). The description is as above.
In data set [3] the target is BsaWI E128A (Bacillus stearothermophilus W1718).
For data set [4] the target is unchanged. The data set is described as follows: SEC; gel filtration of the tetramerization interface mutants at up to 25 μM protein; Superdex column, room temperature, 20 mM Tris-HCl pH 7.4, 0.5 M NaCl, 5% glycerol. In general terms: SEC sorts molecules by how far they enter the pores of the column.
The target is the same in data set [5]. The data set is described as follows: SEC; gel filtration at 5 μM loading concentration; Superdex column, room temperature, 20 mM Tris-HCl pH 7.4, 0.5 M NaCl, 5% glycerol; oligomeric state from the apparent Mw.
For data set [6] the target is unchanged. As to the kind of experiment: native gel or EMSA; 1 nM 33P-labeled 30-bp SP duplex with 0.02-1000 nM protein, 40 mM Tris-acetate pH 8.3, 0.1 mg/ml BSA, 10% glycerol, 5 mM CaCl2, room temperature; oligomeric state of the DNA-bound protein read from the mobility of the complex.
The target in data set [7] is BsaWI E128A&R130A (Bacillus stearothermophilus W1718).
For data set [8] the target is unchanged. As to the kind of experiment: SEC; gel filtration of the tetramerization interface mutants at up to 25 μM protein; Superdex column, room temperature, 20 mM Tris-HCl pH 7.4, 0.5 M NaCl, 5% glycerol.
Data set [9] has the same target. The data set is described as follows: SEC; gel filtration at 5 μM loading concentration; Superdex column, room temperature, 20 mM Tris-HCl pH 7.4, 0.5 M NaCl, 5% glycerol; oligomeric state from the apparent Mw.
Data set [10] shares this target. As to the kind of experiment: native gel or EMSA; 1 nM 33P-labeled 30-bp SP duplex with 0.02-1000 nM protein, 40 mM Tris-acetate pH 8.3, 0.1 mg/ml BSA, 10% glycerol, 5 mM CaCl2, room temperature; oligomeric state of the DNA-bound protein read from the mobility of the complex. (In EMSA bound probe runs differently from free probe, usually more slowly.)
The target of data set [11] is BsaWI E128A&W262A (Bacillus stearothermophilus W1718).
The target is the same in data set [12]. As to the kind of experiment: SEC; gel filtration of the tetramerization interface mutants at up to 25 μM protein; Superdex column, room temperature, 20 mM Tris-HCl pH 7.4, 0.5 M NaCl, 5% glycerol.
Data set [13] has the same target. The data set is described as follows: SEC; gel filtration at 5 μM loading concentration; Superdex column, room temperature, 20 mM Tris-HCl pH 7.4, 0.5 M NaCl, 5% glycerol; oligomeric state from the apparent Mw.
For data set [14] the target is unchanged. The data set is described as follows: native gel or EMSA; 1 nM 33P-labeled 30-bp SP duplex with 0.02-1000 nM protein, 40 mM Tris-acetate pH 8.3, 0.1 mg/ml BSA, 10% glycerol, 5 mM CaCl2, room temperature; oligomeric state of the DNA-bound protein read from the mobility of the complex.
For data set [15], the target named is BsaWI K85A (Bacillus stearothermophilus W1718). As to the kind of experiment: SEC; gel filtration at 5 μM loading concentration; Superdex column, room temperature, 20 mM Tris-HCl pH 7.4, 0.5 M NaCl, 5% glycerol; oligomeric state from the apparent Mw.
Data set [16] has as its target BsaWI R130A (Bacillus stearothermophilus W1718).
Data set [17] has the same target. As to the kind of experiment: SEC; gel filtration of the tetramerization interface mutants at up to 25 μM protein; Superdex column, room temperature, 20 mM Tris-HCl pH 7.4, 0.5 M NaCl, 5% glycerol.
Data set [18] shares this target. As to the kind of experiment: SEC; gel filtration at 5 μM loading concentration; Superdex column, room temperature, 20 mM Tris-HCl pH 7.4, 0.5 M NaCl, 5% glycerol; oligomeric state from the apparent Mw.
Data set [19] shares this target. The data set is described as follows: native gel or EMSA; 1 nM 33P-labeled 30-bp SP duplex with 0.02-1000 nM protein, 40 mM Tris-acetate pH 8.3, 0.1 mg/ml BSA, 10% glycerol, 5 mM CaCl2, room temperature; oligomeric state of the DNA-bound protein read from the mobility of the complex.
The target in data set [20] is BsaWI R130A&R259A (Bacillus stearothermophilus W1718).
For data set [21] the target is unchanged. As to the kind of experiment: SEC; gel filtration of the tetramerization interface mutants at up to 25 μM protein; Superdex column, room temperature, 20 mM Tris-HCl pH 7.4, 0.5 M NaCl, 5% glycerol.
For data set [22] the target is unchanged. As to the kind of experiment: SEC; gel filtration at 5 μM loading concentration; Superdex column, room temperature, 20 mM Tris-HCl pH 7.4, 0.5 M NaCl, 5% glycerol; oligomeric state from the apparent Mw.
The target is the same in data set [23]. The data set is described as follows: native gel or EMSA; 1 nM 33P-labeled 30-bp SP duplex with 0.02-1000 nM protein, 40 mM Tris-acetate pH 8.3, 0.1 mg/ml BSA, 10% glycerol, 5 mM CaCl2, room temperature; oligomeric state of the DNA-bound protein read from the mobility of the complex.
Data set [24] concerns the target BsaWI R259A (Bacillus stearothermophilus W1718).
Data set [25] has the same target. As to the kind of experiment: SEC; gel filtration of the tetramerization interface mutants at up to 25 μM protein; Superdex column, room temperature, 20 mM Tris-HCl pH 7.4, 0.5 M NaCl, 5% glycerol.
For data set [26] the target is unchanged. As to the kind of experiment: SEC; gel filtration at 5 μM loading concentration; Superdex column, room temperature, 20 mM Tris-HCl pH 7.4, 0.5 M NaCl, 5% glycerol; oligomeric state from the apparent Mw.
The target is the same in data set [27]. The data set is described as follows: native gel or EMSA; 1 nM 33P-labeled 30-bp SP duplex with 0.02-1000 nM protein, 40 mM Tris-acetate pH 8.3, 0.1 mg/ml BSA, 10% glycerol, 5 mM CaCl2, room temperature; oligomeric state of the DNA-bound protein read from the mobility of the complex.
For data set [28], the target named is BsaWI R259A&W262A (Bacillus stearothermophilus W1718).
For data set [29] the target is unchanged. The data set is described as follows: SEC; gel filtration of the tetramerization interface mutants at up to 25 μM protein; Superdex column, room temperature, 20 mM Tris-HCl pH 7.4, 0.5 M NaCl, 5% glycerol.
For data set [30] the target is unchanged. The data set is described as follows: SEC; gel filtration at 5 μM loading concentration; Superdex column, room temperature, 20 mM Tris-HCl pH 7.4, 0.5 M NaCl, 5% glycerol; oligomeric state from the apparent Mw.
Data set [31] has the same target. As to the kind of experiment: native gel or EMSA; 1 nM 33P-labeled 30-bp SP duplex with 0.02-1000 nM protein, 40 mM Tris-acetate pH 8.3, 0.1 mg/ml BSA, 10% glycerol, 5 mM CaCl2, room temperature; oligomeric state of the DNA-bound protein read from the mobility of the complex.
Data set [32] concerns the target restriction endonuclease BsaWI, wild type (Bacillus stearothermophilus W1718).
Data set [33] shares this target. The data set is described as follows: SEC; gel filtration at low loading concentrations (0.25-1 μM); Superdex column, room temperature, 20 mM Tris-HCl pH 7.4, 0.5 M NaCl, 5% glycerol.
Data set [34] shares this target. The data set is described as follows: SEC; gel filtration of the BsaWI-DNA complex with the 30 bp SP oligoduplex; Superdex column, room temperature, 20 mM Tris-HCl pH 7.4, 0.5 M NaCl, 5% glycerol.
Data set [35] has the same target. As to the kind of experiment: SEC; gel filtration at 2.5-5 μM loading concentration (concentration series); Superdex column, room temperature, 20 mM Tris-HCl pH 7.4, 0.5 M NaCl, 5% glycerol.
For data set [36] the target is unchanged. The data set is described as follows: SEC; gel filtration at 5 μM loading concentration; Superdex column, room temperature, 20 mM Tris-HCl pH 7.4, 0.5 M NaCl, 5% glycerol; oligomeric state from the apparent Mw.
Data set [37] has the same target. The data set is described as follows: native gel or EMSA; 1 nM 33P-labeled 30-bp SP duplex with 0.02-1000 nM protein, 40 mM Tris-acetate pH 8.3, 0.1 mg/ml BSA, 10% glycerol, 5 mM CaCl2, room temperature; oligomeric state of the DNA-bound protein read from the mobility of the complex.
The target of data set [38] is T1, BsaWI wt (UniProt Q6UQ65 1-272).
T1 sequence: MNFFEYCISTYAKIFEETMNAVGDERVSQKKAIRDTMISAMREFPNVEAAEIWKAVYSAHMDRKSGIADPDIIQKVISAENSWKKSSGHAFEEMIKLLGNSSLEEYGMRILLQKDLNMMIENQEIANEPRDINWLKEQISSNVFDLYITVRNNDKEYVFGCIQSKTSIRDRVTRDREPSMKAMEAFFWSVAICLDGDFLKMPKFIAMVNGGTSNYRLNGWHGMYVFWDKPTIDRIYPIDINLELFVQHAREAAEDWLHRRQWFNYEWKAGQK
As to the kind of experiment: EMSA; 5 mM Ca2+; lower mobility complex; EMSA: 40 mM Tris-acetate pH 8.3, 0.1 mg/ml BSA, 10% glycerol, 5 mM CaCl2 or 0.1 mM EDTA, 1 nM DNA, room temperature, 15 min. As to conditions: protein: recombinant; chain copies: 4; label: 33P; blunt.

In data set [39] the target is T1, BsaWI wt. The data set is described as follows: crystal structure; 0.02 M CaCl2 in crystallization buffer; no Ca2+ seen; pre-specific complex; 2.40 A; EMSA: 40 mM Tris-acetate pH 8.3, 0.1 mg/ml BSA, 10% glycerol, 5 mM CaCl2 or 0.1 mM EDTA, 1 nM DNA, room temperature, 15 min. As to conditions: protein: recombinant; chain copies: 4; blunt; self-complementary, 2 copies of strand.

On to BsaWI D145A (enzyme), for which, in data set [1], the stoichiometry N worked out at 4.

For the molecule BsaWI D175A (enzyme), in [2], the stoichiometry N was 4.

With BsaWI E128A (enzyme), in data set [3], the ratio of DNA cleavage rate constants kobs for the 2-site and 1-site substrates at optimal enzyme concentration came to 17.9. For the same molecule, the stoichiometry N in data set [4], in data set [5] and in data set [6] was 2 each time.

In the case of BsaWI E128A&R130A (enzyme), in [7], the ratio of DNA cleavage rate constants kobs for the 2-site and 1-site substrates at optimal enzyme concentration was determined as 1.8. The stoichiometry N in data set [8], in data set [9] and in data set [10] was 2 throughout.

As for BsaWI E128A&W262A (enzyme), in [11], the ratio of DNA cleavage rate constants kobs for the 2-site and 1-site substrates at optimal enzyme concentration turned out to be 2.2. In addition, the stoichiometry N in data set [12], in data set [13] and in [14] was 2 throughout.

Consider BsaWI K85A (enzyme), for which, in data set [15], the stoichiometry N stood at 4.

Consider BsaWI R130A (enzyme), for which the ratio of DNA cleavage rate constants kobs for the 2-site and 1-site substrates at optimal enzyme concentration in [16] came to 2.4. The stoichiometry N in data set [17], in data set [18] and in data set [19] was 2 in each case.

Take BsaWI R130A&R259A (enzyme): the ratio of DNA cleavage rate constants kobs for the 2-site and 1-site substrates at optimal enzyme concentration in data set [20] is 1.1. Further, the stoichiometry N in data set [21], in [22] and in data set [23] was 2 throughout.

BsaWI R259A (enzyme): the ratio of DNA cleavage rate constants kobs for the 2-site and 1-site substrates at optimal enzyme concentration in [24] was found to be 14.4. Moreover, the stoichiometry N in [25], in [26] and in [27] was 2 throughout.

On to BsaWI R259A&W262A (enzyme), for which, in [28], the ratio of DNA cleavage rate constants kobs for the 2-site and 1-site substrates at optimal enzyme concentration came to 2.2. In addition, the stoichiometry N in data set [29], in data set [30] and in data set [31] was 2 throughout.

As to “restriction endonuclease BsaWI, wild type (enzyme)”, the ratio of DNA cleavage rate constants kobs for the 2-site and 1-site substrates at optimal enzyme concentration in [32] is 20.6. The stoichiometry N in data set [33] amounted to 2; in data set [34], 4; in data set [35] it was 4; in [36], 4; in [37], 4.

B1: NSP (dsDNA)
DNA 1: AATGGGCTCGCACGCCTGGTATTATCGATTGTA
DNA 2: TACAATCGATAATACCAGGCGTGCGAGCCCATT
Regarding B1, the Kd in [38] is around 10 nM.

B2: SP14 (dsDNA)
DNA 1: CTCGACCGGTCGAG
DNA 2: CTCGACCGGTCGAG
Turning to B2, the binding result in data set [39] is “binds”.

As usually defined, the stoichiometry N is the number of molecules, sites or subunits per partner or assembly. Broadly, the Kd is the equilibrium constant for the complex coming apart.
